Test results as given in patent publication US12168044B2, “Peptides and combination of peptides for use in immunotherapy against non-small cell lung cancer and other cancers” (priority 2016, dated 2024).
One block for each molecule: values may come before it.

Legend:
HLA-A*0201 molecule = HLA-A*0201 molecule (Homo sapiens, UniProt P04439, D140Y/D185E/D98H/E176V/E277Q/G131W/G231S/I119V/I121R/I166T/I218V/L300P/L318F/N151K/N90K/P208A/P217A/Q86G/Q94H/R138H/R169H/T345S); conditions: Wu et al. 2011; cited from earlier work
[1] = tested on: HLA-A*0201/Kb transgenic mice; conditions: cited from earlier work
[2] = tested on: HLA-A*0201-positive PBMCs; conditions: cited from earlier work
HLA-A*02:01 = HLA-A*02:01 (Homo sapiens, UniProt P04439, D140Y/D185E/D98H/E176V/E277Q/G131W/G231S/I119V/I121R/I166T/I218V/L300P/L318F/N151K/N90K/P208A/P217A/Q86G/Q94H/R138H/R169H/T345S); experiment: Binding to HLA-A*02:01 (additional data, Example 6)
[3] = tested on: T-cells of healthy donors; experiment: Immunogenicity and functional T-cell data (Example 6); format: cell-based, human
Description: The immunogenicity of MAG-003 was tested using protocols that mimic the manufacturing procedure for a pharmaceutical product.

[4] = tested on: advanced esophageal, stomach or lung cancer; conditions: of 15 patients who completed one vaccination cycle; cited from earlier work

Molecule: p286-1Y2L9L: MAG-003 variant having 3 amino acid substitutions, printed as SEQ ID NO:3 (KVLEHVVRA; listed as Homo sapiens)
binding affinity and stability towards HLA-A*0201 molecule (HLA-A*0201 molecule): potent binding affinity and stability | induction of specific CTLs that lyse target cancer cells ([1]; HLA-A2.1/Kb transgenic mice, Wu et al. 2011): capability to induce specific CTLs | induction of specific CTLs that lyse target cancer cells ([2]; PBMCs of healthy donors, Wu et al. 2011): capability to induce specific CTLs

Molecule: p286-1Y2L: MAG-003 variant having 2 amino acid substitutions, printed as SEQ ID NO:2 (KVLEHVVRL; listed as Homo sapiens)
binding affinity and stability towards HLA-A*0201 molecule (HLA-A*0201 molecule): potent binding affinity and stability

binding to HLA-A*02:01 (HLA-A*02:01): very good binding
Molecule: KVLEHVVRV (listed as Homo sapiens) [MAG-003]
binding affinity and stability towards HLA-A*0201 molecule (HLA-A*0201 molecule): potent binding affinity and stability | elicitation of peptide-specific CTLs ([1]; HLA-A*0201/Kb transgenic mice, Jia et al. 2010): elicits peptide-specific CTLs | lysis of target cells by the induced CTLs ([2]; Jia et al. 2010): lyse target cells in an HLA-A*0201-restricted fashion | elicitation of peptide-specific CTLs ([2]; in vitro from HLA-A*0201-positive PBMCs, Jia et al. 2010): elicits peptide-specific CTLs | killing of peptide loaded target cells by generated T cells [3]: able to kill peptide loaded target cells | priming of peptide-specific T-cells ([3]; healthy donors, protocols mimicking manufacturing procedure): Priming of MAG-003-specific T-cells was observed

B1: MAGEA4 vaccine: MAGEA4 vaccine containing protein, given subcutaneously once every 2 weeks in six doses (Saito et al., 2014) (protein, UniProt P43358 1-317, looked up)
Melanoma-associated antigen 4: MSSEQKSQHCKPEEGVEAQEEALGLVGAQAPTTEEQEAAVSSSSPLVPGTLEEVPAAESAGPPQSPQGASALPTTISFTCWRQPNEGSSSQEEEGPSTSPDAESLFREALSNKVDELAHFLLRKYRAKELVTKAEMLERVIKNYKRCFPVIFGKASESLKMIFGIDVKEVDPASNTYTLVTCLGLSYDGLLGNNQIFPKTGLLIIVLGTIAMEGDSASEEEIWEELGVMGVYDGREHTVYGEPRKLLTQDWVQENYLEYRQVPGSNPARYEFLWGPRALAETSYVKVLEHVVRVNARVRIAYPSLREAALLEEEEGV
modifications: vaccine formulation
patients with CD4 T-cell response [4]: three | patients with CD8 T-cell response [4]: six | patients with MAGEA4-specific humoral response [4]: four
